Data taken from the NTF2 design screens of Basanta et al. (2020).

Test: protease stability score; higher = more stable; yeast display proteolysis, trypsin and chymotrypsin;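 further: relative to predicted unfolded state with 0 unfolded-like and 1 meaning tenfold more protease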

**Q.** For “DEDTEKVERIAKEVINLHETGDWENWSKQADPHTRVELNVDGQHFEYIGREKFREALEWLGIKHSHFHHIEIIGDKLHVDGYSFFNGRRTRVELRFVIVNGRIKHQIIIIK”, which protease stability score is on record?
**A.** The protease stability score was 0.848.

**Q.** Which protease stability score does the source give for “DEDTEKVRWFFEVLKRASDTGNEEEELKLLDPNARYIFNGKNDHGRRAWERFKKNLGVKHVEIHPRDFDVVDGRIHIEIELRIHVDGREIRFDIEIIVEKFNGRWYLRSIHID” here?
**A.** The protease stability score was 0.376.

**Q.** Which protease stability score does the source give for “DEDTELAERWVELFRKSVETGDEHKLEKLLDPHVKLDIGDKRYHGRELAVDTLKTMIDEMRSDHVTIDRVDVFDGRVILHSRIESTVDGRRTELEMRIVARKIDGRWVVESLEIN” here?
**A.** The protease stability score was 1.49.

**Q.** With “DEDTELDETISREIIHAEKTGNEDWLTKLIDPNPRIEINGRIFHGMDFWLKFLKDMGVDHIDVKRDRAYNGVLDMDGYIIVNGREIRTHIHIVIVDGKATHIRIEIR” as the sequence, how does the protease stability score read?
**A.** Its protease stability score is 1.61.

**Q.** With “DEDTELLKHHLDIFRDAVRTGDEEKERKYADPDDRINVDGVIFHGWEESKRFYEHWRVKDFHVHDMKVQGDKADVESRLVVQINGREVIFRVKLIITKVNGRWKHTMLEIK” as the sequence, how does the protease stability score read?
**A.** The protease stability score was 1.62.

**Q.** For “DEDTELMRHIIERLLRSSKTGDEDSMADLLDPNVRIVNEDERLHGRELASRFMYELRIHHFELTRFKVYDGKIDIDGIHDGEINGVRRRVWVEFISVKVNGKWQIKELRIG”, which protease stability score is on record?
**A.** The protease stability score was 1.35.

**Q.** Which protease stability score does the source give for “DEDTELSKHFDDVFAEYVETGDEHSLRHLMDPNTRILVNGVDLVGWELVLDHLDRHLKEMRIKRVTTHEMRIYGDKVTIHSKLKMHIDGRDVDTDTEIIVKKVDGKWIMHFVNLH” here?
**A.** Its protease stability score is 2.25.

**Q.** With “DEDTELVYRIIKRLKEYIKTGDEDSIKELLDPNARIEVGDKEIHGRDRFAHMLVEIWSKDHKVELKDSRTFPNHLEYDGVLREDIEIDGKRIHRTRKLIVLVRKVNGRWYVEEIIFH” as the sequence, how does the protease stability score read?
**A.** Its protease stability score is 2.19.

**Q.** Which protease stability score does the source give for “DEDTENVLRALEQFDEKLLTGDWRSLEELADPHVRIDINGQDIHGRETHSEHFRRIKNLKLEHLDVHSFTVIGNKVELDTEIIGEIDGRRRIFRVRMRILKIDGRWVLHSVEIG” here?
**A.** Its protease stability score is 1.46.

**Q.** Which protease stability score does the source give for “DEDTEQAERVSHIMLHLYHTGDEEKFNHLADPNVRVEVNGVEIIGRHAFMKHLREIRLHDLRIEEVHIRVFNGRLRIEIKGRMDGHFNGVTKRTEVDILIIVLKVDGRWHVHSFSETIH” here?
**A.** The protease stability score was 1.6.

**Q.** Which protease stability score does the source give for “DEDTEQLEWILKLHLEISRTGDEHSEHHMVDPNTRIEVGDKELHGREEIVKWFAHIRIDHIDIKRYHIFNGRVRIDGRVEGNVDGRETTMRVIFLSDKFNGRWRHRSVIVR” here?
**A.** The protease stability score was 1.53.

**Q.** With “DEDTEQVERALHLWVKLVQTGNEEVIRHLLDPNVRIIVNGVDYHGRSALDELQRRVDVNTWKRVRLHDASVYNGRMHIDGEIDTQEIVGDKRIIIHTKVDMVSSKVNGKWIFHSMIFH” as the sequence, how does the protease stability score read?
**A.** The protease stability score was 0.848.

**Q.** For “DEDTESATKALQLFIHLFITGDEEQLLRLLDPNARNDIGDYHRHGREFLEFFVERVKNVTFHLHDMRLELIGDKIHLIIHGDEWVNGVRLRTELVILMEKVNGRWVIRSVRVIFR”, which protease stability score is on record?
**A.** Its protease stability score is 1.75.

**Q.** With “DEDTEVIERSITHWMKVLETGDWEDIERNADPNARMDINGREFHGREEVSRHLREDLDRLGIERVRVEIKHYRVQGEFIDIHGILRQGEYESKIHVRASKINGKWVLESLEVV” as the sequence, how does the protease stability score read?
**A.** The protease stability score was 0.078.

**Q.** Which protease stability score does the source give for “DEDTHDNRHALELLLRFLETGDEDSLRELADPNARLSVNGRNQHGREDLFSTWSEMGVDHMEIKSHRIVDGRLLLHGHIKFNGRREDVHIFMVKIDGRWYIEEVKIL” here?
**A.** Its protease stability score is 1.56.

**Q.** With “DEDTHDTKKAVEEFIHTVRTGDEHSLRRQLDPNARVEVGDKEQHGRLFIEWFIRMLGIDNVDVRVHDHHVYDGRVEVDLLLHVDGRDFRVNIVWDKINGQWRNRMVIFR” as the sequence, how does the protease stability score read?
**A.** Its protease stability score is 1.17.

**Q.** With “DEDTHEFRHFIELRRHNLETGNERALAELLDPNVRILFDGVDIVGRDSWIKHLRELGYEQVDSRVNIKRLEIWNGRAHMDGRVRRHFDGKTTEVDVHLVLVKFNGRWVIESIHNH” as the sequence, how does the protease stability score read?
**A.** The protease stability score was 0.555.

**Q.** With “DEDTHKLDKHVKEVLTAWETGDEEMLLRLIDPDARITIGDKEVIGMEEALKHWKEIRIKHLELTDFKLVDGQLDSKVQVHSEVNGRRFETTIRIVLHKINGKWRIRSMTFI” as the sequence, how does the protease stability score read?
**A.** The protease stability score was 1.34.

**Q.** For “DEDTHLAKVVLEIFLHLMRTGDFKETWEYADPHVRIDIGDKHLHGREELARLMEELGIDHFEIRDVHLQGDKLHIRTDVDFNGVRTHVVFIILKVDGRWVLTHVRIE”, which protease stability score is on record?
**A.** Its protease stability score is 1.46.

**Q.** With “DEDTHMMELFNKTLHHVERTGDETLLNKLMDPHARLEIGDKHNHGRENVERERRRLLKELGHTQVEFRIREIRFQGDKLTIHGHTLVNGVHFDIRLLVWKVDGRWHMESFHLE” as the sequence, how does the protease stability score read?
**A.** Its protease stability score is 1.46.
